Results on 15 molecules are retold here after patent US20170298395A1, “AUTOTROPHIC HYDROGEN BACTERIA AND USES THEREOF” (Ohio State Innovation Foundation, priority 2011, published 2017).

The labels stand for the following.
B1: A167V (protein)
chain: MSSFLRALTLRQLQIFVTVARHASFVRAAEELHLTQPAVSMQVKQLESVVGMALFERVKGQLTLTEPGDRLLHHASRILGEVKDAEEGLQAVKDVEQGSITIGLISTSKYFAPKLLAGFTALHPGVDLRIAEGNRETLLRLLQDNAIDLALMGRPPRELDAVSEPIVAHPHVLVASPRHPLHDAKGFDLQELRHETFLLREPGSGTRTVAEYMFRDHLFTPAKVITLGSNETIKQAVMAGMGISLLSLHTLGLELRTGEIGLLDVAGTPIERIWHVAHMSSKRLSPASESCRAYLLEHTAEFLGREYGGLMPGRRVA
B2: A117V (protein)
chain: B1 chain with A117V, V167A
B3: E87K (protein)
chain: B1 chain with E87K, V167A
B4: G205D/R283H (protein)
chain: B1 chain with V167A, G205D, R283H
B5: wt CbbR: wild-type CbbR (R. eutropha), 317 amino acids, SEQ ID NO: 1 (protein)
chain: B1 chain with V167A
B6: D148N (protein)
chain: B1 chain with D148N, V167A
B7: G125D (protein)
chain: B1 chain with G125D, V167A
B8: G125S/V265M (protein)
chain: B1 chain with G125S, V167A, V265M
B9: T232A (protein)
chain: B1 chain with V167A, T232A
B10: P221S/T299I (protein)
chain: B1 chain with V167A, P221S, T299I
B11: T232I (protein)
chain: B1 chain with V167A, T232I
B12: P269S/T299I (protein)
chain: B1 chain with V167A, P269S, T299I
B13: G205D/G118D (protein)
chain: B1 chain with G118D, V167A, G205D
B14: G98R (protein)
chain: B1 chain with G98R, V167A
B15: R272Q (protein)
chain: B1 chain with V167A, R272Q

Numbering of substitutions follows the chain as printed. In names and notes the source's numbering stands.

The first data set has as its system cbbL transcript. It counts as cell-based, Ralstonia eutropha. Particulars: chemoautotrophic growth, 26 cycles of PCR.
Consider B1, for which the “increase in transcription over wild type CbbR (RT-PCR, FIG. 22)” value is recorded as 4.1 fold.

The data set is the same for the next values; noted with them: chemoautotrophic growth, OD 0.2.
Take B2: the “increase in cbb transcript over wild type CbbR (RT-PCR, FIG. 21)” value was 1.9 fold.

For B1, the “increase in cbb transcript over wild type CbbR (RT-PCR, FIG. 21)” value is 3.3 fold.

Another data set concerns RubisCO. It counts as cell-based, Ralstonia eutropha. The following applies: CA growth conditions.
With B2, the “level of RubisCO relative to wild-type CbbR” value is listed as 2.2 fold.

B1: the “level of RubisCO relative to wild-type CbbR” value is on record as about 2.7 fold.

Still in this data set, the particulars now being: CH growth conditions.
B3: the “level of RubisCO relative to wild-type CbbR” value came to 330 fold.

Consider B4, for which the “level of RubisCO relative to wild-type CbbR” value amounted to 530 fold.

The data set is the same for the next values; noted with them: Table 9, chemoautotrophic growth conditions.
B5: the “Chemoautotrophic RubisCO activity” value is 90 nmol/min/mg of protein.

For B6, the “Chemoautotrophic RubisCO activity” value is listed as 185 nmol/min/mg of protein.

Take B7: the “Chemoautotrophic RubisCO activity” value is on record as 162 nmol/min/mg of protein.

In the case of B8, the “Chemoautotrophic RubisCO activity” value is listed as 162 nmol/min/mg of protein.

In the case of B9, the “Chemoautotrophic RubisCO activity” value is recorded as 78 nmol/min/mg of protein.

As for B2, the “Chemoautotrophic RubisCO activity” value is listed as 171 nmol/min/mg of protein.

With B1, the “Chemoautotrophic RubisCO activity” value is 173 nmol/min/mg of protein.

On to B10, for which the “Chemoautotrophic RubisCO activity” value is recorded as 206 nmol/min/mg of protein.

In the case of B11, the “Chemoautotrophic RubisCO activity” value is 106 nmol/min/mg of protein.

As to B12, the “Chemoautotrophic RubisCO activity” value is recorded as 118 nmol/min/mg of protein.

Staying with this data set, now noted: Table 12, chemoautotrophic (induced) growth.
For B5, the “Chemoautotrophic RubisCO activity” value is 139 nmol/min/mg of protein.

Consider B6, for which the “Chemoautotrophic RubisCO activity” value is listed as 242 nmol/min/mg of protein.

As to B7, the “Chemoautotrophic RubisCO activity” value is reported as 298 nmol/min/mg of protein.

For the molecule B3, the “Chemoautotrophic RubisCO activity” value was 305 nmol/min/mg of protein.

Take B8: the “Chemoautotrophic RubisCO activity” value is on record as 259 nmol/min/mg of protein.

On to B9, for which the “Chemoautotrophic RubisCO activity” value is recorded as 140 nmol/min/mg of protein.

B4: the “Chemoautotrophic RubisCO activity” value is 115 nmol/min/mg of protein.

On to B2, for which the “Chemoautotrophic RubisCO activity” value is on record as 314 nmol/min/mg of protein.

As for B1, the “Chemoautotrophic RubisCO activity” value is 370 nmol/min/mg of protein.

Take B10: the “Chemoautotrophic RubisCO activity” value is recorded as 212 nmol/min/mg of protein.

In the case of B13, the “Chemoautotrophic RubisCO activity” value was 148 nmol/min/mg of protein.

For the molecule B11, the “Chemoautotrophic RubisCO activity” value is given as 123 nmol/min/mg of protein.

Regarding B12, the “Chemoautotrophic RubisCO activity” value was 158 nmol/min/mg of protein.

The data set is the same for the next values; noted with them: Table 12, chemoheterotrophic (repressed) growth.
B5: the “Chemoheterotrophic RubisCO activity” value is 0.1 nmol/min/mg of protein.

For the molecule B6, the “Chemoheterotrophic RubisCO activity” value is listed as 8 nmol/min/mg of protein.

On to B7, for which the “Chemoheterotrophic RubisCO activity” value is reported as 3 nmol/min/mg of protein.

Take B3: the “Chemoheterotrophic RubisCO activity” value is 33 nmol/min/mg of protein.

As for B8, the “Chemoheterotrophic RubisCO activity” value is 2 nmol/min/mg of protein.

As to B9, the “Chemoheterotrophic RubisCO activity” value was 4 nmol/min/mg of protein.

With B4, the “Chemoheterotrophic RubisCO activity” value is recorded as 53 nmol/min/mg of protein.

Regarding B2, the “Chemoheterotrophic RubisCO activity” value is listed as 6 nmol/min/mg of protein.

Turning to B1, the “Chemoheterotrophic RubisCO activity” value is listed as 15 nmol/min/mg of protein.

As to B10, the “Chemoheterotrophic RubisCO activity” value is recorded as 16 nmol/min/mg of protein.

B13: the “Chemoheterotrophic RubisCO activity” value was 30 nmol/min/mg of protein.

As for B11, the “Chemoheterotrophic RubisCO activity” value is on record as 5 nmol/min/mg of protein.

On to B12, for which the “Chemoheterotrophic RubisCO activity” value was 14 nmol/min/mg of protein.

The subject of another data set is cbb promoter. It counts as cell-based, Ralstonia eutropha. The following applies: Table 9, chemoautotrophic growth conditions.
Regarding B5, the “Chemoautotrophic β-galactosidase activity” value is on record as 3265 nmol/min/mg of protein.

Consider B6, for which the “Chemoautotrophic β-galactosidase activity” value was 5909 nmol/min/mg of protein.

As for B7, the “Chemoautotrophic β-galactosidase activity” value was 6777 nmol/min/mg of protein.

With B8, the “Chemoautotrophic β-galactosidase activity” value is on record as 6770 nmol/min/mg of protein.

As to B9, the “Chemoautotrophic β-galactosidase activity” value is reported as 4626 nmol/min/mg of protein.

Regarding B2, the “Chemoautotrophic β-galactosidase activity” value is 6793 nmol/min/mg of protein.

As to B1, the “Chemoautotrophic β-galactosidase activity” value was 7373 nmol/min/mg of protein.

In the case of B10, the “Chemoautotrophic β-galactosidase activity” value is recorded as 4672 nmol/min/mg of protein.

B11: the “Chemoautotrophic β-galactosidase activity” value is 5005 nmol/min/mg of protein.

On to B12, for which the “Chemoautotrophic β-galactosidase activity” value was 3697 nmol/min/mg of protein.

The same data set, now with this note: Table 12, chemoautotrophic (induced) growth.
B5: the “Chemoautotrophic β-galactosidase activity” value is reported as 3265 nmol/min/mg of protein.

Regarding B6, the “Chemoautotrophic β-galactosidase activity” value is listed as 6442 nmol/min/mg of protein.

In the case of B7, the “Chemoautotrophic β-galactosidase activity” value is 6777 nmol/min/mg of protein.

On to B3, for which the “Chemoautotrophic β-galactosidase activity” value was 5515 nmol/min/mg of protein.

As for B8, the “Chemoautotrophic β-galactosidase activity” value was 6770 nmol/min/mg of protein.

Consider B9, for which the “Chemoautotrophic β-galactosidase activity” value was 5269 nmol/min/mg of protein.

As for B4, the “Chemoautotrophic β-galactosidase activity” value is reported as 4480 nmol/min/mg of protein.

With B2, the “Chemoautotrophic β-galactosidase activity” value was 6793 nmol/min/mg of protein.

Turning to B1, the “Chemoautotrophic β-galactosidase activity” value is listed as 7373 nmol/min/mg of protein.

As for B10, the “Chemoautotrophic β-galactosidase activity” value was 5312 nmol/min/mg of protein.

In the case of B13, the “Chemoautotrophic β-galactosidase activity” value is given as 3939 nmol/min/mg of protein.

Take B11: the “Chemoautotrophic β-galactosidase activity” value was 5005 nmol/min/mg of protein.

As for B12, the “Chemoautotrophic β-galactosidase activity” value is 3879 nmol/min/mg of protein.

Still in this data set, the particulars now being: Table 12, chemoheterotrophic (repressed) growth.
For the molecule B5, the “Chemoheterotrophic β-galactosidase activity” value was 3 nmol/min/mg of protein.

For the molecule B6, the “Chemoheterotrophic β-galactosidase activity” value is 343 nmol/min/mg of protein.

For B7, the “Chemoheterotrophic β-galactosidase activity” value is 108 nmol/min/mg of protein.

As to B3, the “Chemoheterotrophic β-galactosidase activity” value is 1597 nmol/min/mg of protein.

Regarding B8, the “Chemoheterotrophic β-galactosidase activity” value is recorded as 53 nmol/min/mg of protein.

B9: the “Chemoheterotrophic β-galactosidase activity” value is 212 nmol/min/mg of protein.

Consider B4, for which the “Chemoheterotrophic β-galactosidase activity” value is given as 2311 nmol/min/mg of protein.

Turning to B2, the “Chemoheterotrophic β-galactosidase activity” value was 254 nmol/min/mg of protein.

Regarding B1, the “Chemoheterotrophic β-galactosidase activity” value is reported as 768 nmol/min/mg of protein.

Consider B10, for which the “Chemoheterotrophic β-galactosidase activity” value is given as 655 nmol/min/mg of protein.

On to B13, for which the “Chemoheterotrophic β-galactosidase activity” value is reported as 1168 nmol/min/mg of protein.

Turning to B11, the “Chemoheterotrophic β-galactosidase activity” value is given as 303 nmol/min/mg of protein.

Regarding B12, the “Chemoheterotrophic β-galactosidase activity” value is 617 nmol/min/mg of protein.

The test system of another data set is cbb promoter. The data set is classed as binding, R. eutropha. Particulars: in the presence of ATP.
Turning to B5, the “effect of ATP on CbbR binding to cbb promoter probe (phosphorimage, in words)” value (from here on “effect of ATP on CbbR binding”) is recorded as “enhancement of binding”.

B14: the “effect of ATP on CbbR binding” value was “no enhancement of binding”.

As to B15, the “effect of ATP on CbbR binding” value is “modest enhancement of binding”.

The same data set, now with this note: in the presence of FBP.
For the molecule B5, the “effect of FBP on CbbR binding to cbb promoter probe (phosphorimage, in words)” value is recorded as “no enhancement of binding”.

The data set is the same for the next values; noted with them: in the presence of NADPH.
For B5, the “effect of NADPH on CbbR binding to cbb promoter probe (phosphorimage, in words)” value is reported as “modest enhancement of binding”.

Still in this data set, the particulars now being: in the presence of Ru5P.
For B5, the “effect of Ru5P on CbbR binding to cbb promoter probe (phosphorimage, in words)” value is “no enhancement of binding”.

Staying with this data set, now noted: in the presence of RuBP.
With B5, the “effect of RuBP on CbbR binding to cbb promoter probe (phosphorimage, in words)” value (from here on “effect of RuBP on CbbR binding”) is recorded as “enhancement of binding”.

With B14, the “effect of RuBP on CbbR binding” value was “modest enhancement of binding”.

Regarding B15, the “effect of RuBP on CbbR binding” value is “reduction of binding”.
